# No end group written: not given here.
# B1: recombinant human relaxin 800828 (WT, wild-type) (ligand)
# chain 1: DSWMEEVIKLCGRELVRAQIAICGMSTWS
# chain 2: QLYSALANKCCHVGCTKRSLARFC
# modifications: not fully specified; ends and bridges not checked
# Molecular target: the receptor on THP-1 cells
# Experiment: cell-based or functional assay
binder,measurement,value
B1,EC50 (ng/ml) of cAMP induced in THP-1 cells (cAMP ELISA),3.03 ng/mL
